These are literature values, as cited in US9687493B2, “Use of NK-1 receptor antagonists for treating hypomagnesemia, neurogenic inflammation, and cardiac dysfunction associated with EGFR-blocking drugs” (THE GEORGE WASHINGTON UNIVERSITY, priority 2014, dated 2017).

The conditions of this data set: patients with colorectal cancer, monoclonal antibodies targeting the EGFR; cited from earlier work.

On to panitumumab, for which the “hypomagnesemia in treated patients” value was “pronounced hypomagnesemia”.
